Laboratory results: a protein production outcome set (Wang et al. 2014)

Assay: label from the status in PepcDB records
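Note: failed if final PepcDB status was selected cloned or expressed and not failed if soluble or beyond.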

Sequence	protein production
MAYAHVFASLTISTISLRRFLPRLHRNHSVKPNSRIICNLKLNYSAGKFREMGLSRSVELDQFITSEEEEGEAEEIGEGFFEAIEELERMTREPSDILEEMNHRLSSRELQLMLVYFAQEGRDSWCTLEVFEWLKKENRVDEEIMELMVSIMCGWVKKLIEDECNAHQVFDLLIEMDCVGLKPGFSMMDKVIALYCEMGKKESAVLFVKEVLRRRDGFGYSVVGGGGSEGRKGGPVGYLAWKFMVDGDYRKAVDMVMELRLSGLKPEAYSYLIAMTAIVKELNSLGKTLRELKRFARAGFVAEIDDHDRVLIEKYQSETLSRGLQLATWAVEEGQENDSIIGVVHERLLAMYICAGRGPEAEKQLWKMKLAGREPEADLHDIVMAICASQKEVNAVSRLLTRVEFMGSQRKKKTLSWLLRGYVKGGHFEEAAETLVSMIDSGLHPEYIDRVAVMQGMTRKIQRPRDVEAYMSLCKRLFDAGLPKTNLNDLRTSVSSYVFLKLSESEGESKAGGRNKNHRGKIVMELEDPTMADSTIKLTVKFGGKSIPLSVSPDCTVKDLKSQLQPITNVLPRGQKLIFKGKVLVETSTLKQSDVGSGAKLMLMASQGLHQGEGPILKEASIRPISRTVVSDKVDQRKPSVLVDKNRTDRWKATGVIALAQANLKEIPEEVWDCGSGVRVLDISENFIKEVPAKISSFGSMQKLFLQGNGLSDESIQWEGIASLKRLMLLSISHNNLTVLPSAMGSLTSLRQLDVTNNKLTSLPNELGLLTQLEILKANNNRITSLPESIGNCSFLMEVDLSANIISELPETFTKLRNLKTLELNNTGLKTLPSALFKMCLQLSTLGLHNTEITVEFLRQFEGYDDFDERRRTKHQKQLDFRVVGSGQFDEGADKSW	failed
MSVPQRPHQFVLTLSCPSAAGQVAAVVGLLDRHRCYVDELTVFDDDLSARFFVRCVFHATDDADALRVDALRREFEPIAERFRMQWAIHDVAARPKVLIMVSKLEHCLADLLFRWKMGELKMDIVGIVSNHPDFAPLAAQHGLPFRHFPITADTKAQQEAQWLDVFETSGAELVILARYMQVLSPEASARLANRAINIHHSFLPGFKGAKPYHQAHARGVKLIGATAHFVTDDLDEGPIIEQVVERVDHSYRPEQLLAVGRDVECITLARAVKAFIERRVFLNGDRTVVFQ	not failed
MASHVDLLTELQLLEKVPTLERLRAAQKRRAQQLKKWAQYEQDLLHRKRKHERKRSTGGRRKKVSFEASVALLEASLRNDAEEVRYFLKNKVSPDLCNEDGLTALHQCCIDNFEEIVKLLLSHGANVNAKDNELWTPLHAAATCGHINLVKILVQYGADLLAVNSDGNMPYDLCEDEPTLDVIETCMAYQGITQEKINEMRAAPEQKMISDIHCMIAAGQDLDWIDGQGATLLHIAGANGYLRAAELLLDHGVRVDVKDWDGWEPLHAAAFWGQMPMAELLVSHGASLSARTSMDEMPIDLCEEEEFKVLLLELKHKHDVIMKSQLRHKSSLSRRTSSAGSRGKVVRRASLSDRTNLYRKEYEGEAILWQQRSAAEEQRTSTYNGDIRETRTDQENKDPNPRLEKPVLLSEFSTKISRGELDGPVENGLRAPVSTYQYALANGDIWKMHEIPDYSMAYGNPGMADVPPPWSGFKEQSPQTLLELKRQRAAAKLLSHPFLSTHLGSSVARSGEGSSEGKAPLIGGRTSPYSSNGTSVYYTVTSGDPPLLKFKAPMEEMEEKVHGCCRIS	failed
MAISIRTMAALSMVGLRGKRDVQQYSEWISQPCRPAMKGFRPGIGPTLVVLLLLPVLVALGFWQLGRGEQKRQLLASYAERRAAEPVALFELLASEDPAFRRVRLHGHFDADHSLLLDNRLHDGKVGVELLQPFLDQASGRWLLVNRGWLPWPDRRTPPVFSTPQQSLSLDAWVYVSPGAAFQLHADPSGASWPRLITAVGPQALWAELGRSGFDHEVRLESGPGAYLTEWPVVAMGPEKHQAYAVQWFAMALALFALYLYFGWHNTREKRHGNGHESTQHL	failed
MGVISAYAVVHERAAIIDPGTAKGAEIILDEIDRSWNVEYICPTHIHIDHGGGAARLAKALDAKIIVHPRGVKHVVNPEKLWEASKAVLGEVAEIYGKPESIDESKVIAVEDEQEFDLGGERLKVFHAPGHAPHMLVYYLTNSKVLFPADAVGMCFGGVVFPLTPPPFDADAALKTLKRLKGLKVDYVAFTHYGVVELEHHHHHH	failed
MTVRTRVTDLLEIEHPILMGGMAWAGTPTLAAAVSEAGGLGIIGSGAMKPDDLRKAISELRQKTDKPFGVNIILVSPWADDLVKVCIEEKVPVVTFGAGNPTKYIRELKENGTKVIPVVASDSLARMVERAGADAVIAEGMESGGHIGEVTTFVLVNKVSRSVNIPVIAAGGIADGRGMAAAFALGAEAVQMGTRFVASVESDVHPVYKEKIVKASIRDTVVTGAKLGHPARVLRTPFARKIQEMEFENPMQAEEMLVGSLRRAVVEGDLERGSFMVGQSAGLIDEIKPVKQIIEDILKEFKETVEKLRGYIEE	not failed
MWCGRNAPPRRIRRHTASKSASTAAKGGVRRACPGIVSITRPFDRTRYGSQIPPMPAISIIARTRRKDDHGRVPIRLRISHRGEKRFIALPVKVLAKKWNGDKRRVTGTHPDAGEINTFLSDLERAAFSVISRLERAGTLITAQRIKDEIQEEREEVKSAPEDFLAFAREKVKGYKRRGQIGTFRSYRTTCRKFTAFIEETYGRDEVPFGALEAELFREFRTYCYEERGNSTNTVGRELGIMRTLVRHAMKEGKLSAYPFEHITIDSEPSQKELLTPEEVERIADLEIDEESPAAEARRWFLFAYYAGGMRFSDVATLQWQHIREGRSGRPRVCYKMKKTADTVGVPLIPEAKEILCRYEEGDGEDWVFPISEGIDPGNEEALHRRKCQRNSAANRHLKELAGQAGIEKRVTFHLSRNAAAWKLYQNVGDIYKVSKFLGHSNVEQTQDYIDGFVDESRDEDFIAAMT	failed
REKLFLQPVKPTDSMRMEVSSPKLAIGVRGKREVSEADCYRHHILLKLLFAMMFGWTSDRFQKCYESGKIDASLSLEVEITSRFHFVMLTMDTKEPVALSHQFRKAIRNFTKDLDITEEHLDIIKREMFGEFFSSMNSLEFIATQYDAFENGEIIFDLPKILQEITLEDVLDAGHHLIDDGDIVDFTIFP	failed
MYIICSQFSASEPVNPYALLGAAIVSELLGTTSLKLSEGFSRPVPSLGVVVGYGLAFYLVSLTLEDLPIGVVYGTWAALGIVGVAAIGIVVFDEPIDLPGAVGILLIIIGVYCVNVLSEMSAH	failed
MWAHCSAIARTMVYPSFFCSGDWLKVAAENLCPGDEAYILLAKDADDIRGVLPLVRKRNALGGTDLHYLGSDFYPDPLGLICSPADRADCAAALRNHLLNAPDWDRLILDFLLEDEPADWTLPGKPVSVAPFKVLPRDFSELLGEFKKKKRYNLRAMVKKLLDAGGELAASSGPESNIAYLDALFFLHEKRASERSLDSSFTGPRVQSLHRALVAASDNVRFFGLRLNGQMIAVIYGFEFCNRFFYYQVAHDPDHGHLSPGTVLLYLVIEACCVNGLTEFNFLQGDETYKGIWTNDSRILYRCVLNRSTWRSRVFSAVEESRGYVKRAMGLMSRGN	failed
MLKTVRIIILGAMCTILSAAGFDPPQPAAAKSQADEYEYPFQDPSLPVQKRVSDLLSRLTLEEKVSLMHQYQPAVPRLGIPAFKTGTEALHGVAWLGEATVFPQAFGLAHTWDRYLIKQIGSAVGDEVRGFHHLDPAANGVNVWAPVVDLLRDPRWGRNEEGYSEDPFLTGEIATAYASGLRGDHPFYLKTVPTLKHFLAYNNETDRGFSSSSIDPRNMHEYYLKPFETAISKKAAYGLMPAYNSVNDKPAILSPLLDSTVKRRWAGDDFFIVSDAFDPSGIVNDHKYYDSHEKAHAHAVKAGIDNFTDQGENPELTRNALTGALKQGLISEKDLDQALANTFSIRFRTGEFDPDELNPYSRLTDDVINSPKHQLLAKKAAEKAIVLLKNDQDLLPFNARKNESIAVIGPFGNALYEDWYSGTMPYRKTPLDEIADKIGKDRVSFAEGLEQSGFKSALTGKFVTAGRDGKQPLTAAADKLEKSAAFDAADWGESIFTLRAQANGLYVSLQDDGRLIADQKQPNGRTVKETFQFEQQSDGTFAIKNTANGKYLTAGKDGTLTAAAEKPATAAEKFSKTIIKSGTDEAVQLAKSADKAIVFVGNNPYINGRETEDRKDITLPPAQENLLKAVSKANTNTVLVVTSSYPFALNWAKAHIPAIIYSAHGGQEAGSALADILYGDVNPGGRLTQTWHTSVKELPDMMNYDIIKGKRTYKYFVGKPLFPFGHGLSYTAFRYSDLSLSSDSIKKDGSVTIRVNVTNTGGRKGDEVVQLYTSPLFKTRVKQPNLDLKDFQRVELAPKETKTVTFKLKQTDLAFWDVTRETFAVERGPYRISVGSSAADIRKTKRIFVQGETIRERNLRRKTNAEDYDDYKGVLITEESKYGGDAVKSSTTNAWIAYHDVRFKGEKRIEAKVASSGAGEIGIFLDHPQKGKQIGSLKVPDTSGLQNWKTVKASVRKSTGTHRVFFVFKGKVAIDSFQFER	failed
MTVPLYKQIASLIEDSIVDGTLSIDQRVPSTNELAAFHRINPATARNGLTLLVEAGILYKKRGIGMFVSAQAPALIRERRDAAFAATYVAPLIDESIHLGFTRARIHALLDQVAESRGLYK	failed
MSRYDITGSEGEYEPGSDNKVLRNLPGITDPEEMNIVETDLLEDLYLQVFDNFPEELTFETLCQWHRAWLGNVYSWAGQSRTVDMSKPNIRFASPVQIPKLAEKFEARYLPRFAELPEMTDEELVAFLAEVHVEFILIHPFREGNGRISRLLLDVMAAKAGAEPLDYSLWDEHKDFYFKAIQAGRDGDYQHVERLIRDVLEAQQ	failed
MRSATDLLDELNAVDESARIEAKRASDMGKSVMETVIAFANEPGLDGGYLLLGVDWAINDKGDTVYRPVGLPDPDKVQRDLASQCASMLNVALRPEMQLEQVGGKTLLVVYVPEADVTHKPIYKKATGLPGGAYRRIGSSDQRCVDEDLWVLRGLEHHHHHH	not failed
MKAPELQIQQWFNSATDLTLADLRGKVIVIEAFQMLCPGCVMHGIPLAQKVRAAFPEDKVAVLGLHTVFEHHEAMTPISLKAFLHEYRIKFPVGVDQPGDGAMPRTMAAYQMRGTPSLLLIDKAGDLRAHHFGDVSELLLGAEIATLLGEAAPSVQKQAGTPQGDANCDNDGCTV	not failed
MDIQRSILIVALAVVSYLLVLQWNKDYGQPELPAASASMNTTQGLPDTPSASGTSSDVPTAQSSAAGSEAADKPVAVSDKLIQVKTDVLDLAIDPRGGDIVQLGLLQYPRRLDRPDVPFPLFDNGRERTYLAQSGLTGADGPDASSAGRPLFRSAQSSYQLADGQNELVVDLSFSHDGVNYIKRFTFHRGLKADCSDKEKAQKKIECINENAYQVGVSYLIDNQSGKTWSGNLFAQLKRDGSADPSSTTATGVSTYLGAAVWTPDSPYKKISTKDMDKEQFKESVQGGWVAWLQHYFVTAWVPTKGEQHQVMTRKDGQGNYIVGFTGPTLSVPAGSKVETDLTLYAGPKLQKHLKELSPGLELTVDYGFLWFIAQPIFWLLQHIHSLIGNWGWSIIALTVLIKLAFFPLSAASYRSMARMRAVSPKMQAIKEQHGDDRQKMSQAMMELYKKEKINPLGGCLPILVQMPVFLSLYWVLLESVEMRQAPWLGWITDLSVKDPFFILPIVMGGTMLIQQMLNPTPPDPMQAKVMKLMPIIFTFFFLWFPAGLVLYWVVNNCLSIAQQWYITRKIEAAAKTA	failed
MLDNLQLTDILATVAVLVSITFLIYFAGKTLITANSFQKGVSLYQQKDYPGAEAAFRKVIAINSTNDVVRLFLGDVLREQGKVAEATELFQEVINRSPKNPQGYLRLATILMQQEKQAEAKTNLQKAQELLQKQRQPETAKRVAKLLEQMNTKTI	failed
RDSLFNDPNAPVLGNPEGDVTVVEFFDYNCPYCRRAMAEVQGLVDADPNVRLVYREWPILGEGSDFAARAALAARQQGKYEAFHWALMGMSGKANETGVLRIAREVGLDTEQLQRDMEAPEVTAHIAQSMALAQKLGFNGTPSFVVEDALVPGFVEQSQLQDAVDRARKAAAK	not failed
AVSFTGVSGVKNIVAVTACPTGVAHTFMSAEAIEAYAKKQGWNVKVETRGQVGAGNEITVEEVAAADLVFVAADIDVPLDKFKGKPMYRTSTGLALKKTEQEFDKAFKEAKIF	failed
